Reference: patent publication US20190160028

B1: His-tagged maltose-binding protein (MBP) fused to DENV2 NS3 protein (His-MBP-NS3) (protein)
chain: AGVLWDVPSPPPMGKAELEDGAYRIKQKGILGYSQIGAGVYKEGTFHTMWHVTRGAVLMHKGKRIEPSWADVKKDLISYGGGWKLEGEWKEGEEVQVLALEPGKNPRAVQTKPGLFKTNAGTIGAVSLDFSPGTSGSPIIDKKGKVVGLYGNGVVTRSGAYVSAIAQTEKSIEDNPEIE
B2: refolded His-NS3 (protein)
chain: B1 chain

Target: His-tagged DENV2 NS2B protein (His-NS2B) (aa 48-95)

| Protein | transactivation (protease activity, Abz substrate at 200 µM; NS3 150 nM, NS2B 1 µM) |
| --- | --- |
| B1 | Both soluble MBP-NS3 fusion protein and refolded NS3 can be trans-activated by soluble His-NS2B, and have similar activities |
| B2 | Both soluble MBP-NS3 fusion protein and refolded NS3 can be trans-activated by soluble His-NS2B, and have similar activities |
